# Laboratory results from US20120114639A1, “COMPOSITIONS AND METHODS FOR INHIBITING VIRAL AND/OR BACTERIAL INFECTIONS” (priority 2010, published 2012).
# B1: KGF: keratinocyte growth factor, GFR ligand (protein, UniProt P21781 32-194, looked up)
# Fibroblast growth factor 7: CNDMTPEQMATNVNCSSPERHTRSYDYMEGGDIRVRRLFCRTQWYLRIDKRGKVKGTQEMKNNYNIMEIRTVAVGIVAIKGVESEFYLAMNKEGKLYAKKECNEDCNFKELILENHYNTYASAKWTHNGGEMFVALNQKGIPVRGKKTKKEQKTAHFLPMAIT
# B2: TIMP3: blocks MMP activity (protein, UniProt P35625 24-211, looked up)
# Metalloproteinase inhibitor 3: CTCSPSHPQDAFCNSDIVIRAKVVGKKLVKEGPFGTLVYTIKQMKMYRGFTKMPHVQYIHTEASESLCGLKLEVNKYQYLLTGRVYDGKMYTGLCNFVERWDQLTLSQRKGLNYRYHLGCNCKIKSCYYLPCFVTSKNECLWTDMLSNFGYPGYQSKHYACIRQKGGYCSWYRGWAPPDKSIINATDP
# Tested on: HPV16
# Assay: HPV16 PsV infection of HaCaT cells, luciferase assay
# Assay type: cell-based, human papillomavirus
# Method: FIG. 2. […] (A, B) Immunoblot for syndecan-1 (polyclonal syndecan-1 Ab) after 24 hours at 37° C. in CM (A) or post starvation in SFM and after six hours at 37° C. in Tyrode's Buffer (B); immunoblot for HPV16 L1 released into CM post virus binding for indicated times (C) or 24 hours (E). […] Cells were untreated (U) or pre-treated with BM or MM for one hour, then exposed to HPV16 PsV in the presence of inhibitors in CM. Infection was assayed by quantifying luciferase levels at 24 hours p.i. (F). Data are represented as mean±SEM of three experiments. (G-H) IC50 of HPV16 infectivity inhibition by MMIP inhibitors batimastat and mariniastat. […] HPV16 infection was measured with luciferase assay. […]
# FIG. 7. […] Cells were exposed to HPV16 PsV at 100 vge/cell for one hour at 4° C., then washed extensively and shifted to 37° C. in the presence of the indicated inhibitor in CM for 24 hours at which time they were analyzed for luciferase expression. […] (B-C) EGFR knockdown was accomplished using siRNA to EGFR and the percent of EGFR protein remaining in EGFR-siRNA transfected HaCaT cells was determined by immunoblot and compared by densitometry to EGFR levels in cells transfected with a negative control siRNA at 48 hours post transfection. Four separate transfections were analyzed (B) and HPV16 PsV infection levels were measured at 24 hours post infection (48 hours post transfection) in each (C). […]
Molecule,"restoration of HPV16 infectivity in SFM by added factor (serum-starved HaCaT, HPV16 bound in SFM, 24 hours in SFM plus factor, compared to CM)","HPV16 infection of HaCaT cells (in words) (CM, luciferase 24 hours p.i.)"
B1,partially restore infection levels,–
B2,–,can prevent HPV16 infection
